Assay results: patent publication US20090053745A1 (RUTGERS THE STATE UNIVERSITY OF NEW JERSEY, published 2009)

T1: GST-cypin (UniProt Q9WTT6 1-454)
T1 construct: Expressed in E. coli, purified on glutathione sepharose, eluted with glutathione and dialysed; No removal of GST is reported; also called purified cypin; not shown: glutathione S-transferase (GST) fusion partner
T1 sequence (looked up): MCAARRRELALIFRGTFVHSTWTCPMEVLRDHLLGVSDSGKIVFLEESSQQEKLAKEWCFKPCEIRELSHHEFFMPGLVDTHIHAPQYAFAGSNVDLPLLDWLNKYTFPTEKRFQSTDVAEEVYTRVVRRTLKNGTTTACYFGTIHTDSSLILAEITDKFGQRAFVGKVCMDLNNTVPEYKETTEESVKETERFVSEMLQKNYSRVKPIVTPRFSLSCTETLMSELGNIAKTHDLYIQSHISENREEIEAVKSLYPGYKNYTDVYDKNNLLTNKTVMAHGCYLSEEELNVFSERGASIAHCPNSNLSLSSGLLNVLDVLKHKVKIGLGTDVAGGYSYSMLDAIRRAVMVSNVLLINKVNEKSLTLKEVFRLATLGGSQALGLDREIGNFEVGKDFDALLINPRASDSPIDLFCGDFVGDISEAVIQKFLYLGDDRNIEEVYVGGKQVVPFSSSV

T2: cypin (endogenous, rat brain extract) (rat, UniProt Q9WTT6 1-454)
T2 sequence (looked up): T1 sequence (looked up)

B1: snapin (endogenous, rat brain extract) (other, UniProt P60192 2-136, looked up)
chain: AAAGSAAVSGAGTPVAGPTGRDLFAEGLLEFLRPAVQQLDSHVHAVRESQVELREQIDNLATELCRINEDQKVALDLDPYVKKLLNARRRVVLVNNILQNAQERLRRLNHSVAKETARRRAMLDSGVYPPGSPSK
notes: The smaller band may be a degradation product or a modified snapin
B2: GST-snapin (first 68 amino acids) (other)
chain: MAGAGSAAVSGAGTPVAGPTGRDLFAEGLLEFLRPAVQQLDSHVHAVRESQVELREQIDNLATELCRI
notes: also called snapin(1-68); N-terminal half of snapin; not shown: glutathione S-transferase (GST) fusion partner

Experiments:
[1] = target: PSD-95 (endogenous, rat brain extract) (rat, UniProt P31016 1-724, limits assumed); assay: co-immunoprecipitation from rat brain extract with anti-snapin
Sequence of PSD-95 (endogenous, rat brain extract) (P31016 whole entry): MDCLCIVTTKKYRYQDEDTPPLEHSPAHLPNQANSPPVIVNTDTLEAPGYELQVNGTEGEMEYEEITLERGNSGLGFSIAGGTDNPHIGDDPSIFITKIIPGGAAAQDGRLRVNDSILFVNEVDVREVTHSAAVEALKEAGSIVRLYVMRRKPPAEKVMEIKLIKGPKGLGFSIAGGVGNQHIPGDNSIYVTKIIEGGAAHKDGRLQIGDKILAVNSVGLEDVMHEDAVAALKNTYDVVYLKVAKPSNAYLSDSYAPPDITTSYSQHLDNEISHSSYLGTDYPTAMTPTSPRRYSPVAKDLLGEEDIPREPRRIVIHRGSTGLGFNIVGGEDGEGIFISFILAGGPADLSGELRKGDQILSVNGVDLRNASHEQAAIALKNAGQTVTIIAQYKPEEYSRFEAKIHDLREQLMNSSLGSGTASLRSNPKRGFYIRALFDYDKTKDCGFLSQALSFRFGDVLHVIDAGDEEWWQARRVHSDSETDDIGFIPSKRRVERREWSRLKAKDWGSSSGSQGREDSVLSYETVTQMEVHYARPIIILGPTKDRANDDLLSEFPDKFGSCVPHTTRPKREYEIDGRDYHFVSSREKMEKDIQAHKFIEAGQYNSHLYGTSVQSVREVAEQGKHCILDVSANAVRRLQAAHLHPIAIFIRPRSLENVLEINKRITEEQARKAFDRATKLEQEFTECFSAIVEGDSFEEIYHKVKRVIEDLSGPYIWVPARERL
Description: (§1) For co-immunoprecipitation studies, one rat brain was homogenized in 10 ml of TEE (25 mM Tris, 1 mM EGTA, 1 mM EDTA)+1 mM PMSF. Triton X-100 was added to a final concentration of 1% and proteins were extracted for 1 hour at 4° C. The extract was centrifuged at 12,000×g to remove insoluble material and the supernatant was incubated with either anti-cypin, anti-snapin, preimmune serum, rabbit IgG, anti-tubulin, or mouse IgG. Protein A beads were added and after a 1 hour incubation, the beads were washed with TEE+0.2% Triton X-100. Immunoprecipitated proteins were eluted with protein loading buffer and resolved by SDS-PAGE and transferred to PVDF membrane. Blots were probed with the indicated antibodies. Experiments were performed in duplicate or triplicate.

[2] = target: SNAP-25 (endogenous, rat brain extract) (rat, UniProt P60881 1-206); assay: as above
Sequence of SNAP-25 (endogenous, rat brain extract) (P60881 whole entry): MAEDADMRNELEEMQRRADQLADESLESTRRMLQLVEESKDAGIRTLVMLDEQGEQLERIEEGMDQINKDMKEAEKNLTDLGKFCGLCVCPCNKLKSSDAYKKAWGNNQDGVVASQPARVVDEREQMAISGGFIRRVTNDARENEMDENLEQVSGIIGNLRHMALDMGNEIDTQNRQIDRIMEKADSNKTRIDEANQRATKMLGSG
Description: as §1

[3] = target: T1, GST-cypin; assay: competition co-immunoprecipitation of purified cypin (2 µM) and tubulin heterodimers (7 µM); ligand to be displaced: tubulin heterodimers; strip labelled α-Tubulin on the sheet
Description: GST, GST-cypin, and GST-snapin were expressed in E. coli and purified using glutathione sepharose as previously described (Firestein et al., 1999). Purified proteins were eluted from the beads using glutathione and dialyzed against phosphate buffered saline. Purified cypin (2 μM) and the indicated concentrations of purified snapin were mixed with tubulin heterodimers (7 μM) in PEM buffer (80 mM PIPES, pH 6.9, 2 mM MgCl₂, 0.5 mM EGTA) containing 5% glycerol for 4-6 hours at 4° C. The mixtures were subjected to immunoprecipitation using a monoclonal antibody raised against tubulin. Binding of purified proteins was assayed by SDS-PAGE followed by Western blotting using a rabbit polyclonal antibody raised against cypin (Akum et al., 2004).
Since snapin binds to cypin's CRMP homology domain, which is responsible for binding tubulin heterodimers (Akum et al., 2004), it is possible that snapin could compete tubulin binding to cypin. To address this question, co-immunoprecipitation of purified cypin and tubulin heterodimers in the presence of full-length snapin or the N-terminal half of snapin (amino acids 1-68) was performed. No association of snapin with tubulin heterodimers by co-immunoprecipitation or affinity chromatography was found in the previous experiments (data not shown). […]

[4] = target: T2, cypin (endogenous, rat brain extract); assay: GST affinity chromatography with rat brain extract
Description: COS-7 cells were transfected with either pEGFP-C1-snapin, pDsRed-N1-snapin, pEGFP-C1-cypin or pDsRed-N1-cypin using Lipofectamine 2000 (Invitrogen, Carlsbad, Calif.) as described by manufacturer. Cells were washed with cold PBSE (phosphate buffered saline and 1 mM EDTA) and scraped into 5 mL of TEEN (25 mM Tris-HCl, pH 7.4, 1 mM EDTA, 1 mM EGTA, 100 mM NaCl). Cells were homogenized using a Potter-Elvehjem tissue grinder (20 strokes). Phenylmethylsulfonyl fluoride and DTT were added to lysates to final concentrations of 1 mM and cells were further lysed by passing the extract through a 25 gauge needle 5 times. Lysates were centrifuged at 12,000×g for 10 minutes at 4° C. Triton X-100 was added to the supernatant to a final concentration of 1% and incubated at 4° C. for 30 minutes. Lysates were centrifuged at 12,000×g for 10 minutes at 4° C. COS-7 cell lysates were incubated with glutathione-sepharose beads bound to 25 μg of the appropriate GST-fusion proteins for 1 hour at 4° C. Beads were washed three times with TEEN. Bound proteins were eluted with 0.5% SDS and 100 mM NaCl. Proteins were resolved on a 10% SDS polyacrylamide gel and transferred to PVDF membrane. Blots were probed with the indicated antibodies. For experiments using rat brain extracts, the extracts were prepared exactly as described above except that they were not passed through a 25 gauge needle. […]

| Binder | binding result [1] | binding result [2] | binding result [3] | binding result [4] |
| --- | --- | --- | --- | --- |
| B1 | no binding | no binding |  |  |
| B2 |  |  | no binding (tested: 4 µM) | no binding |
